According to US20080020978A1 (Amgen, published 2008):
Bridge positions count the residues as written; N and C are the ends. Square brackets hold non-standard residues; d marks the D form. 1Nal = N[C@@H](Cc1cccc2ccccc12)C(=O)O; hArg = N=C(N)NCCCC[C@H](N)C(=O)O; hCit = NC(=O)NCCCC[C@H](N)C(=O)O; Cit = NC(=O)NCCC[C@H](N)C(=O)O; Aib = CC(C)(N)C(=O)O

B1: PEG-peptide of SEQ ID NO 890 (peptide)
peptide: Ac-WVEHRLEGLLKRSGGVVRKNFVPTDVGPFAF-NH2
modifications: lactam 7-11; also: PEG-conjugated, in most cases at Lys25
B2: PEG-peptide of SEQ ID NO 897 (peptide)
peptide: Ac-[1Nal]VEH[hArg]LKGLLS[Cit]SGGVVRKNFVPTDVGPFAF-NH2
modifications: lactam 3-7; also: PEG-conjugated, in most cases at Lys25
B3: PEG-peptide of SEQ ID NO 891 (peptide)
peptide: Ac-WVEHRLKGLLSRSGGVVRKNFVPTDVGPFAF-NH2
modifications: lactam 3-7; also: PEG-conjugated, in most cases at Lys25
B4: SEQ ID NO 896 (peptide)
peptide: Ac-WVEHRLKGLLS[Cit]SGGVVRKNFVPTDVGPFAF-NH2
modifications: lactam 3-7
SMILES: CC(=O)N[C@@H](Cc1c[nH]c2ccccc12)C(=O)N[C@H](C(=O)N[C@H]1CCC(=O)NCCCC[C@@H](C(=O)NCC(=O)N[C@@H](CC(C)C)C(=O)N[C@@H](CC(C)C)C(=O)N[C@@H](CO)C(=O)N[C@@H](CCCNC(N)=O)C(=O)N[C@@H](CO)C(=O)NCC(=O)NCC(=O)N[C@H](C(=O)N[C@H](C(=O)N[C@@H](CCCNC(=N)N)C(=O)N[C@@H](CCCCN)C(=O)N[C@@H](CC(N)=O)C(=O)N[C@@H](Cc2ccccc2)C(=O)N[C@H](C(=O)N2CCC[C@H]2C(=O)N[C@H](C(=O)N[C@@H](CC(=O)O)C(=O)N[C@H](C(=O)NCC(=O)N2CCC[C@H]2C(=O)N[C@@H](Cc2ccccc2)C(=O)N[C@@H](C)C(=O)N[C@@H](Cc2ccccc2)C(N)=O)C(C)C)[C@@H](C)O)C(C)C)C(C)C)C(C)C)NC(=O)[C@H](CC(C)C)NC(=O)[C@H](CCCNC(=N)N)NC(=O)[C@H](Cc2c[nH]cn2)NC1=O)C(C)C
B5: SEQ ID NO 893 (peptide)
peptide: Ac-WVEHRLKGLLS[Cit]SGGVVRKNFVPTDVGPFAF-NH2
modifications: lactam 3-7
SMILES: CC(=O)N[C@@H](Cc1c[nH]c2ccccc12)C(=O)N[C@H](C(=O)N[C@H]1CCC(=O)NCCCC[C@@H](C(=O)NCC(=O)N[C@@H](CC(C)C)C(=O)N[C@@H](CC(C)C)C(=O)N[C@@H](CO)C(=O)N[C@@H](CCCNC(N)=O)C(=O)N[C@@H](CO)C(=O)NCC(=O)NCC(=O)N[C@H](C(=O)N[C@H](C(=O)N[C@@H](CCCNC(=N)N)C(=O)N[C@@H](CCCCN)C(=O)N[C@@H](CC(N)=O)C(=O)N[C@@H](Cc2ccccc2)C(=O)N[C@H](C(=O)N2CCC[C@H]2C(=O)N[C@H](C(=O)N[C@@H](CC(=O)O)C(=O)N[C@H](C(=O)NCC(=O)N2CCC[C@H]2C(=O)N[C@@H](Cc2ccccc2)C(=O)N[C@@H](C)C(=O)N[C@@H](Cc2ccccc2)C(N)=O)C(C)C)[C@@H](C)O)C(C)C)C(C)C)C(C)C)NC(=O)[C@H](CC(C)C)NC(=O)[C@H](CCCNC(=N)N)NC(=O)[C@H](Cc2c[nH]cn2)NC1=O)C(C)C
B6: PEG-peptide of SEQ ID NO 886 (peptide)
peptide: WVTHXLAGLLSXSGGVVXKNFVPTDVGPFAF
modifications: Ac-WVTH[hCit]LAGLLS[hCit]SGGVV[hArg]KNFVPTDVGPFAF-NH2; PEG-conjugated (Table 2C: in most cases at Lys^25)
B7: PEG-peptide of SEQ ID NO 887 (peptide)
peptide: B6 peptide
modifications: Ac-WVTH[hArg]LAGLLS[hCit]SGGVV[hArg]KNFVPTDVGPFAF-NH2; PEG-conjugated (Table 2C: in most cases at Lys^25)
B8: SEQ ID NO 887 (peptide)
peptide: B6 peptide
modifications: Ac-WVTH[hArg]LAGLLS[hCit]SGGVV[hArg]KNFVPTDVGPFAF-NH2
B9: PEG-peptide of SEQ ID NO 888 (peptide)
peptide: Ac-WVTH[hCit]LAGLLS[hArg]SGGVV[hArg]KNFVPTDVGPFAF-NH2
modifications: also: PEG-conjugated, in most cases at Lys25
B10: PEG-peptide of SEQ ID NO 894 (peptide)
peptide: Ac-WVEH[hArg]LKGLLS[Cit]SGGVVRKNFVPTDVGPFAF-NH2
modifications: lactam 3-7; also: PEG-conjugated, in most cases at Lys25
B11: SEQ ID NO 891 (peptide)
peptide: Ac-WVEHRLKGLLSRSGGVVRKNFVPTDVGPFAF-NH2
modifications: lactam 3-7
B12: SEQ ID NO 892 (peptide)
peptide: Ac-WVEHRLKGELSRKGGVVRKNFVPTDVGPFAF-NH2
modifications: lactam 9-13, 3-7
B13: SEQ ID NO 895 (peptide)
peptide: Ac-WVEHRLKGLLS[Cit]SGGVVRKNFVPTDVGPFAF-NH2
modifications: lactam 3-7
SMILES: CC(=O)N[C@@H](Cc1c[nH]c2ccccc12)C(=O)N[C@H](C(=O)N[C@H]1CCC(=O)NCCCC[C@@H](C(=O)NCC(=O)N[C@@H](CC(C)C)C(=O)N[C@@H](CC(C)C)C(=O)N[C@@H](CO)C(=O)N[C@@H](CCCNC(N)=O)C(=O)N[C@@H](CO)C(=O)NCC(=O)NCC(=O)N[C@H](C(=O)N[C@H](C(=O)N[C@@H](CCCNC(=N)N)C(=O)N[C@@H](CCCCN)C(=O)N[C@@H](CC(N)=O)C(=O)N[C@@H](Cc2ccccc2)C(=O)N[C@H](C(=O)N2CCC[C@H]2C(=O)N[C@H](C(=O)N[C@@H](CC(=O)O)C(=O)N[C@H](C(=O)NCC(=O)N2CCC[C@H]2C(=O)N[C@@H](Cc2ccccc2)C(=O)N[C@@H](C)C(=O)N[C@@H](Cc2ccccc2)C(N)=O)C(C)C)[C@@H](C)O)C(C)C)C(C)C)C(C)C)NC(=O)[C@H](CC(C)C)NC(=O)[C@H](CCCNC(=N)N)NC(=O)[C@H](Cc2c[nH]cn2)NC1=O)C(C)C
B14: SEQ ID NO 890 (peptide)
peptide: Ac-WVEHRLEGLLKRSGGVVRKNFVPTDVGPFAF-NH2
modifications: lactam 7-11
SMILES: CC(=O)N[C@@H](Cc1c[nH]c2ccccc12)C(=O)N[C@H](C(=O)N[C@@H](CCC(=O)O)C(=O)N[C@@H](Cc1c[nH]cn1)C(=O)N[C@@H](CCCNC(=N)N)C(=O)N[C@@H](CC(C)C)C(=O)N[C@H]1CCC(=O)NCCCC[C@@H](C(=O)N[C@@H](CCCNC(=N)N)C(=O)N[C@@H](CO)C(=O)NCC(=O)NCC(=O)N[C@H](C(=O)N[C@H](C(=O)N[C@@H](CCCNC(=N)N)C(=O)N[C@@H](CCCCN)C(=O)N[C@@H](CC(N)=O)C(=O)N[C@@H](Cc2ccccc2)C(=O)N[C@H](C(=O)N2CCC[C@H]2C(=O)N[C@H](C(=O)N[C@@H](CC(=O)O)C(=O)N[C@H](C(=O)NCC(=O)N2CCC[C@H]2C(=O)N[C@@H](Cc2ccccc2)C(=O)N[C@@H](C)C(=O)N[C@@H](Cc2ccccc2)C(N)=O)C(C)C)[C@@H](C)O)C(C)C)C(C)C)C(C)C)NC(=O)[C@H](CC(C)C)NC(=O)[C@H](CC(C)C)NC(=O)CNC1=O)C(C)C
B15: SEQ ID NO 897 (peptide)
peptide: Ac-[1Nal]VEH[hArg]LKGLLS[Cit]SGGVVRKNFVPTDVGPFAF-NH2
modifications: lactam 3-7
SMILES: CC(=O)N[C@@H](Cc1cccc2ccccc12)C(=O)N[C@H](C(=O)N[C@H]1CCC(=O)NCCCC[C@@H](C(=O)NCC(=O)N[C@@H](CC(C)C)C(=O)N[C@@H](CC(C)C)C(=O)N[C@@H](CO)C(=O)N[C@@H](CCCNC(N)=O)C(=O)N[C@@H](CO)C(=O)NCC(=O)NCC(=O)N[C@H](C(=O)N[C@H](C(=O)N[C@@H](CCCNC(=N)N)C(=O)N[C@@H](CCCCN)C(=O)N[C@@H](CC(N)=O)C(=O)N[C@@H](Cc2ccccc2)C(=O)N[C@H](C(=O)N2CCC[C@H]2C(=O)N[C@H](C(=O)N[C@@H](CC(=O)O)C(=O)N[C@H](C(=O)NCC(=O)N2CCC[C@H]2C(=O)N[C@@H](Cc2ccccc2)C(=O)N[C@@H](C)C(=O)N[C@@H](Cc2ccccc2)C(N)=O)C(C)C)[C@@H](C)O)C(C)C)C(C)C)C(C)C)NC(=O)[C@H](CC(C)C)NC(=O)[C@H](CCCCNC(=N)N)NC(=O)[C@H](Cc2c[nH]cn2)NC1=O)C(C)C
B16: SEQ ID NO 898 (peptide)
peptide: Ac-[Aib]WVEH[hArg]LKGLLS[Cit]SGGVVRKNFVPTDVGPFAF-NH2
modifications: lactam 4-8
SMILES: CC(=O)NC(C)(C)C(=O)N[C@@H](Cc1c[nH]c2ccccc12)C(=O)N[C@H](C(=O)N[C@H]1CCC(=O)NCCCC[C@@H](C(=O)NCC(=O)N[C@@H](CC(C)C)C(=O)N[C@@H](CC(C)C)C(=O)N[C@@H](CO)C(=O)N[C@@H](CCCNC(N)=O)C(=O)N[C@@H](CO)C(=O)NCC(=O)NCC(=O)N[C@H](C(=O)N[C@H](C(=O)N[C@@H](CCCNC(=N)N)C(=O)N[C@@H](CCCCN)C(=O)N[C@@H](CC(N)=O)C(=O)N[C@@H](Cc2ccccc2)C(=O)N[C@H](C(=O)N2CCC[C@H]2C(=O)N[C@H](C(=O)N[C@@H](CC(=O)O)C(=O)N[C@H](C(=O)NCC(=O)N2CCC[C@H]2C(=O)N[C@@H](Cc2ccccc2)C(=O)N[C@@H](C)C(=O)N[C@@H](Cc2ccccc2)C(N)=O)C(C)C)[C@@H](C)O)C(C)C)C(C)C)C(C)C)NC(=O)[C@H](CC(C)C)NC(=O)[C@H](CCCCNC(=N)N)NC(=O)[C@H](Cc2c[nH]cn2)NC1=O)C(C)C
B17: SEQ ID NO 894 (peptide)
peptide: Ac-WVEH[hArg]LKGLLS[Cit]SGGVVRKNFVPTDVGPFAF-NH2
modifications: lactam 3-7
B18: SEQ ID NO 889 (peptide)
peptide: Ac-WVTHRLRGELSRKGGVVRKNFVPTDVGPFAF-NH2
modifications: lactam 9-13
SMILES: CC(=O)N[C@@H](Cc1c[nH]c2ccccc12)C(=O)N[C@H](C(=O)N[C@H](C(=O)N[C@@H](Cc1c[nH]cn1)C(=O)N[C@@H](CCCNC(=N)N)C(=O)N[C@@H](CC(C)C)C(=O)N[C@@H](CCCNC(=N)N)C(=O)NCC(=O)N[C@H]1CCC(=O)NCCCC[C@@H](C(=O)NCC(=O)NCC(=O)N[C@H](C(=O)N[C@H](C(=O)N[C@@H](CCCNC(=N)N)C(=O)N[C@@H](CCCCN)C(=O)N[C@@H](CC(N)=O)C(=O)N[C@@H](Cc2ccccc2)C(=O)N[C@H](C(=O)N2CCC[C@H]2C(=O)N[C@H](C(=O)N[C@@H](CC(=O)O)C(=O)N[C@H](C(=O)NCC(=O)N2CCC[C@H]2C(=O)N[C@@H](Cc2ccccc2)C(=O)N[C@@H](C)C(=O)N[C@@H](Cc2ccccc2)C(N)=O)C(C)C)[C@@H](C)O)C(C)C)C(C)C)C(C)C)NC(=O)[C@H](CCCNC(=N)N)NC(=O)[C@H](CO)NC(=O)[C@H](CC(C)C)NC1=O)[C@@H](C)O)C(C)C

What follows are binders tested against CGRP1 receptor (CRLR/RAMP1 complex) of human neuroblastoma SK-N-MC cells (human, UniProt Q16602 23-461; O60894 27-148) (assay: cell-based or functional assay).
Sequence of CGRP1 receptor (CRLR/RAMP1 complex) of human neuroblastoma SK-N-MC cells (Q16602 23-461, chain 1 of 2): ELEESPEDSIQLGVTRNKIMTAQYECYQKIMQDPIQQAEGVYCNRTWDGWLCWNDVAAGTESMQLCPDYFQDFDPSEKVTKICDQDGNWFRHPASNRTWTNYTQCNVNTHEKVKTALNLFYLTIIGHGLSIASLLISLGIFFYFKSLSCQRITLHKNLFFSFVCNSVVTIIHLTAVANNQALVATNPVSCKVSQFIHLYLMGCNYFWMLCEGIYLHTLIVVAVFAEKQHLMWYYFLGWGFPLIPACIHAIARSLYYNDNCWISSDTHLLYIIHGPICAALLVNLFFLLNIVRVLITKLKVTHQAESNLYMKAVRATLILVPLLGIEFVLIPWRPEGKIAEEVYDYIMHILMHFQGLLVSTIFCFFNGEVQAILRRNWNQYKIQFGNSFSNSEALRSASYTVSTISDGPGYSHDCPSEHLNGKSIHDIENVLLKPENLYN
Sequence of CGRP1 receptor (CRLR/RAMP1 complex) of human neuroblastoma SK-N-MC cells (O60894 27-148, chain 2 of 2): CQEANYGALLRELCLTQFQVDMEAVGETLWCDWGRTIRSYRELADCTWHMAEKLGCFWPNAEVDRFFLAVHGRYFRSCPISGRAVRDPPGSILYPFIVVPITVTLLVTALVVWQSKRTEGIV

B1 and B2 are within 1.5-fold of each other in “PEG-peptide IC50” value: 2.86 nM for the first, 4.1 nM for the second.

Compared with B3, B6 is 6.1-fold higher in “PEG-peptide IC50” value: 3.71 nM for the first, 22.7 nM for the second.

Compared with B7, B9 is 3-fold lower in “PEG-peptide IC50” value: 6.3 nM for the first, 2.11 nM for the second.

In the case of B10, the “PEG-peptide IC50” value is reported as 3.54 nM.

B4 and B5 are within 1.5-fold of each other in “Peptide IC50” value: 1.61 nM for the first, 1.64 nM for the second.

First: B8
Second: B11
The “Peptide IC50” value of the first is 2.1-fold higher: 3.14 nM for the first, 1.47 nM for the second.

Compared with B12, B13 is 2.5-fold higher in “Peptide IC50” value: 1.11 nM for the first, 2.8 nM for the second.

B14 and B15 are within 1.5-fold of each other in “Peptide IC50” value: 1.7 nM for the first, 2.25 nM for the second.

Compared with B16, B17 is 2.5-fold lower in “Peptide IC50” value: 3.18 nM for the first, 1.26 nM for the second.

B18 was tested, and the “Peptide IC50” value was 0.94 nM.
